Data as given in publication PMC3084282.

How the values were obtained:
[1] = biological target: α-crystallin (bovine lens) (bovine (endogenous in calf lens)) (UniProt P02470)
[2] = biological target: α-crystallin (bovine lens) (bovine (endogenous in calf lens)) (UniProt P02470); remark: listed apart in the source

Sequence of UniProt P02470 (P02470 whole entry, chain 1 of 2): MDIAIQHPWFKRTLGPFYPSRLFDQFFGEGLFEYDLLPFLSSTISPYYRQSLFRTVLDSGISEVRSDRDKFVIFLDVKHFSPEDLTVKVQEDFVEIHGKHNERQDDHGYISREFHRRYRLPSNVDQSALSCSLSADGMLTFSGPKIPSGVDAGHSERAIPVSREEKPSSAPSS
Sequence of UniProt P02470 (P02510 whole entry, chain 2 of 2, further chain): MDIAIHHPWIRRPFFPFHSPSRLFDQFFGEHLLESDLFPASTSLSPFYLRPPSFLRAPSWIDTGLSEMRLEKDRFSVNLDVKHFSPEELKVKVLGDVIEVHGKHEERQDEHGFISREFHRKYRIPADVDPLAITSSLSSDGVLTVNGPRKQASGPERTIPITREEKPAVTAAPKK

αA-(66-80) peptide showed a precipitation of soluble α-crystallin from 200 µg of CLE after incubation with increasing amounts of peptide (up to 50 µg), 16 h, 37°C; supernatant analysed by MALS [1] greater than 50% and a Bis-ANS fluorescence (hydrophobicity) of α-crystallin (100 µg) with 10 or 20 µg of peptide, 50 mM phosphate buffer pH 7.2, 60 min [2] of 30%.
